We go through 14 molecules from PMC10351726 (PLOS ONE, 2023).

What all share (details): both partners purified
Assay [1] addresses T1, HER2-ECD biotinylated at single site (Homo sapiens, UniProt P04626, biotinylated at single site).
T1 construct: human HER2 extracellular domain; also called ECD of HER2; source: bought: Sino Biological
In words: SPR; Biacore 8K; biotinylated HER2-ECD on a streptavidin chip; sdAbs injected in multi-cycle kinetics, 2-fold dilution series from 5 nM; 100 μL/min, 25°C, HBS-EP+ pH 7.4; 1:1 model. A general note: In SPR one partner is held on a chip, and binding of the other changes the refractive index at the surface.

Assay [2] addresses T2, human HER2-ECD-Fc (Homo sapiens, UniProt P04626).
T2 construct: human epidermal growth factor receptor-2 (HER2), extracellular domain; The supplier is named only for the cross-reactivity ELISA; also called recombinant human HER2-Fc; recombinant human HER2-ECD; source: bought: R&D systems
In words: ELISA; microplates coated with human or mouse HER2-ECD-Fc, blocked with 1% BSA at room temperature; NM-02 serially diluted from 160 nM; detected with mouse anti-HA and anti-mouse IgG-alkaline phosphatase. (In general: ELISA stands for enzyme-linked immunosorbent assay.)

The target in assay [3] is T3, mouse HER2-ECD-Fc (Mus musculus, UniProt P70424).
T3 construct: mouse HER2 (ErbB2), extracellular domain; also called murine HER2-ECD; recombinant murine HER2-ECD; source: bought: R&D systems
Described as above.

In assay [4] the target is T2, human HER2-ECD-Fc. As to the kind of experiment: ELISA; recombinant human HER2-Fc (1 μg/mL) coated on a MaxiSorp plate; His-tagged sdAb pre-incubated 7 days at 37°C in human, mouse or cynomolgus serum or PBS, then serially diluted; detected with anti-HIS-HRP.

T3 sequence (P70424 23-653): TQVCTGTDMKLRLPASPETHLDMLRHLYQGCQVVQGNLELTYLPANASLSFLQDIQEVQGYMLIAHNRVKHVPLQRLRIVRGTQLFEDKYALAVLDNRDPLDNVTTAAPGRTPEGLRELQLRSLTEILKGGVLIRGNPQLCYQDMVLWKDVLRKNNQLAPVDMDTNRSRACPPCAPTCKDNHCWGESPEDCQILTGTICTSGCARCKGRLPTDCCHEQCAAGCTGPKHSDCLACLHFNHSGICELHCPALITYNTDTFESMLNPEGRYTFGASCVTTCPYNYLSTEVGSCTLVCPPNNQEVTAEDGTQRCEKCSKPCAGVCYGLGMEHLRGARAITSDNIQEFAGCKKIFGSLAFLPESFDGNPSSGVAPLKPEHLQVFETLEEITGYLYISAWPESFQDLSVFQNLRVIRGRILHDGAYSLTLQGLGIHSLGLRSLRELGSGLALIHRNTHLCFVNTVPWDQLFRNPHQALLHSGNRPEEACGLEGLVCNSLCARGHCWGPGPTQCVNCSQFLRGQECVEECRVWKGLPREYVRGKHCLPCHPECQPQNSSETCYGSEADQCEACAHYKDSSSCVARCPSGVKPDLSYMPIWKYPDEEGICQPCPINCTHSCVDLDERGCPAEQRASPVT

B1: humanised NM-02 variant F (VHH)
VHH: QVQLQESGGGLVQPGGSLRLSCSASGFTFDDSDMGWYRQAPGNECELVSSISSDGSTYYADSVKGRFTISQDNSKNTLYLQMNSLRAEDTAVYYCAAEGHRYELGTCAALDYWGRGTLVTVSS
notes: humanised variant F of NM-02; source: ExpiCHO-S, transiently transfected, purified (HisTrap Excel, SEC)
As to B1, the binding result in assay [1] is recorded as “binds”.

B2: NanoMab-02 (NM-02), HA- and His-tagged (VHH)
VHH: QVQLQESGGGSVQAGETLRLSCTASGFTFDDSDMGWYRQAPGNECELVSSISSDGSTYYADSVKGRFTISQDNAKNTVYLQMNSLKPEDTGVYYCAAEGHRYELGTCAALDYWGRGTQVTVSS
notes: camel (Camelus bactrianus) anti-HER2 single-domain antibody from a phage display library; In the ELISA and flow cytometry it was detected through the HA tag only; The microarray used the dual His6 + HA version (methods: 'either HA- and/or His-tagged'); also called dual tagged version of NM-02; duel-tagged NM-02
As a reminder, the EC50 is the concentration that produces a half-maximal response. In the case of B2, in assay [2], the EC50 is 1.2 nM. Besides, the binding result in assay [3] is on record as “no binding (tested: 160 nM)”.

B3: humanised NM-02 variant G (VHH)
VHH: QVQLQESGGGLVQPGGSLRLSCSASGFTFDDSDMGWYRQAPGNECELVSSISSDGSTYYADSVKGRFTISQDNSKNTLYLQMNSLRAEDTAVYYCAAEGHRYELGTCAALDYWGRGTQVTVSS
notes: humanised variant G of NM-02, with parental back mutations; source: ExpiCHO-S, transiently transfected, purified (HisTrap Excel, SEC)
As for B3, in assay [1], the binding result is “binds”.

B4: humanised NM-02 variant M (VHH)
VHH: QVQLQESGGGLVQPGGSLRLSCSASGFTFDDSDMGWYRQAPGNECELVSSISSDGSTYYADSVKGRFTISQDNSKNTVYLQMNSLRAEDTGVYYCAAEGHRYELGTCAALDYWGRGTLVTVSS
notes: humanised variant M of NM-02, with parental back mutations; source: ExpiCHO-S, transiently transfected, purified (HisTrap Excel, SEC)
As for B4, the binding result in assay [1] was “binds”.

B5: humanised NM-02 variant D (VHH)
VHH: QVQLQESGGGLVQPGGSLRLSCAASGFTFDDSDMGWYRQAPGNECELVSSISSDGSTYYADSVKGRFTISQDNSKNTLYLQMNSLRAEDTGVYYCAAEGHRYELGTCAALDYWGRGTLVTVSS
notes: humanised variant D of NM-02; source: ExpiCHO-S, transiently transfected, purified (HisTrap Excel, SEC)
Regarding B5, in assay [1], the binding result is “binds”.

B6: humanised NM-02 variant L (VHH)
VHH: QVQLQESGGGLVQPGGSLRLSCSASGFTFDDSDMGWYRQAPGNECELVSSISSDGSTYYADSVKGRFTISQDNAKNTLYLQMNSLRAEDTGVYYCAAEGHRYELGTCAALDYWGRGTLVTVSS
notes: humanised variant L of NM-02, with parental back mutations; source: ExpiCHO-S, transiently transfected, purified (HisTrap Excel, SEC)
Turning to B6, the binding result in assay [1] is listed as “binds”.

B7: humanised NM-02 variant E (VHH)
VHH: QVQLQESGGGLVQPGGSLRLSCSASGFTFDDSDMGWYRQAPGNECELVSSISSDGSTYYADSVKGRFTISQDNSKNTLYLQMNSLRAEDTGVYYCAAEGHRYELGTCAALDYWGRGTLVTVSS
notes: humanised variant E of NM-02, 83.5% human identity; also called mid-humanised candidate; source: ExpiCHO-S, transiently transfected, purified (HisTrap Excel, SEC)
Regarding B7, the binding result in assay [1] is “binds”.

B8: NanoMab-02 (NM-02) (VHH)
VHH: QVQLQESGGGSVQAGETLRLSCTASGFTFDDSDMGWYRQAPGNECELVSSISSDGSTYYADSVKGRFTISQDNAKNTVYLQMNSLKPEDTGVYYCAAEGHRYELGTCAALDYWGRGTQVTVSS
notes: camel (Camelus bactrianus) anti-HER2 single-domain antibody; residues Gln3 to Ser123 modelled in the structure; The humanised variants were made in ExpiCHO-S with a C-terminal GSG-His tag, and the parent run beside them may have the same format; also called parent; wild type NM-02
As usually defined, the Kd is the equilibrium constant for the complex coming apart. High values mean weaker binding, low ones tighter binding. Molecule B8 yielded a dissociation constant Kd in assay [1] of about 0.2 nM.

B9: humanised NM-02 variant I (VHH)
VHH: QVQLQESGGGLVQPGGSLRLSCSASGFTFDDSDMGWYRQAPGNECELVSSISSDGSTYYADSVKGRFTISQDNSKNTLYLQMNSLRAEDTGVYYCAAEGHRYELGTCAALDYWGRGTQVTVSS
notes: humanised variant I of NM-02, with parental back mutations; source: ExpiCHO-S, transiently transfected, purified (HisTrap Excel, SEC)
In the case of B9, in assay [1], the binding result is on record as “binds”.

B10: humanised NM-02 variant H (VHH)
VHH: QVQLQESGGGSVQPGGSLRLSCSASGFTFDDSDMGWYRQAPGNECELVSSISSDGSTYYADSVKGRFTISQDNSKNTLYLQMNSLRAEDTAVYYCAAEGHRYELGTCAALDYWGRGTLVTVSS
notes: humanised variant H of NM-02, with parental back mutations; source: ExpiCHO-S, transiently transfected, purified (HisTrap Excel, SEC)
Regarding B10, the binding result in assay [1] is “binds”.

B11: humanised NM-02 variant N (VHH)
VHH: QVQLQESGGGLVQPGGSLRLSCSASGFTFDDSDMGWYRQAPGNECELVSSISSDGSTYYADSVKGRFTISQDNSKNTLYLQMNSLRPEDTGVYYCAAEGHRYELGTCAALDYWGRGTLVTVSS
notes: humanised variant N of NM-02, with parental back mutations; source: ExpiCHO-S, transiently transfected, purified (HisTrap Excel, SEC)
On to B11, for which, in assay [1], the binding result is listed as “binds”.

B12: humanised NM-02 variant B (VHH)
VHH: QVQLQESGGGLVQPGETLRLSCAASGFTFDDSDMGWYRQAPGNECELVSSISSDGSTYYADSVKGRFTISQDNSKNTLYLQMNSLRAEDTGVYYCAAEGHRYELGTCAALDYWGRGTLVTVSS
notes: humanised variant B of NM-02; source: ExpiCHO-S, transiently transfected, purified (HisTrap Excel, SEC)
In the case of B12, the binding result in assay [1] is “binds”.

B13: humanised NM-02 variant J (VHH)
VHH: QVQLQESGGGSVQPGGSLRLSCSASGFTFDDSDMGWYRQAPGNECELVSSISSDGSTYYADSVKGRFTISQDNSKNTLYLQMNSLRAEDTGVYYCAAEGHRYELGTCAALDYWGRGTQVTVSS
notes: humanised variant J of NM-02, with parental back mutations; source: ExpiCHO-S, transiently transfected, purified (HisTrap Excel, SEC)
B13: the binding result in assay [1] is recorded as “binds”.

B14: lead humanised NM-02 candidate (variant K) (VHH)
VHH: QVQLQESGGGLVQPGGSLRLSCTASGFTFDDSDMGWYRQAPGNECELVSSISSDGSTYYADSVKGRFTISQDNSKNTLYLQMNSLRAEDTGVYYCAAEGHRYELGTCAALDYWGRGTLVTVSS
notes: humanised variant K of NM-02, 82.5% human identity; also called humanised variant K; humanised lead; source: ExpiCHO-S, transiently transfected, purified (HisTrap Excel, SEC); not shown: His-tag (with short GSG linker), C-terminal, kept
As to B14, in assay [1], the Kd stood at 0.212 nM and the “fold more potent than variant E” value was at least 2 fold. Moreover, the “fold drop-off of activity after 7 days at 37°C in human serum versus PBS” value in assay [4] is 1.5 fold.
